Data reported in patent US20250289897A1 (Eli Lilly, published 2025).
Substitutions are numbered along the chain they refer to. Each block holds one binder with its values, some of them ahead of it.

Tests used:
[1] = biological target: T1, human LEPR, full length, on HEK293-STAT3Luc-hLepR1 cells (Homo sapiens, UniProt P48357 22-1165); test: flow cytometry on live HEK293-STAT3Luc-hLepR1 cells, AF647 anti-human IgG; average of 4 runs
T1 construct: also called human LEPR on live cell surface
T1 sequence: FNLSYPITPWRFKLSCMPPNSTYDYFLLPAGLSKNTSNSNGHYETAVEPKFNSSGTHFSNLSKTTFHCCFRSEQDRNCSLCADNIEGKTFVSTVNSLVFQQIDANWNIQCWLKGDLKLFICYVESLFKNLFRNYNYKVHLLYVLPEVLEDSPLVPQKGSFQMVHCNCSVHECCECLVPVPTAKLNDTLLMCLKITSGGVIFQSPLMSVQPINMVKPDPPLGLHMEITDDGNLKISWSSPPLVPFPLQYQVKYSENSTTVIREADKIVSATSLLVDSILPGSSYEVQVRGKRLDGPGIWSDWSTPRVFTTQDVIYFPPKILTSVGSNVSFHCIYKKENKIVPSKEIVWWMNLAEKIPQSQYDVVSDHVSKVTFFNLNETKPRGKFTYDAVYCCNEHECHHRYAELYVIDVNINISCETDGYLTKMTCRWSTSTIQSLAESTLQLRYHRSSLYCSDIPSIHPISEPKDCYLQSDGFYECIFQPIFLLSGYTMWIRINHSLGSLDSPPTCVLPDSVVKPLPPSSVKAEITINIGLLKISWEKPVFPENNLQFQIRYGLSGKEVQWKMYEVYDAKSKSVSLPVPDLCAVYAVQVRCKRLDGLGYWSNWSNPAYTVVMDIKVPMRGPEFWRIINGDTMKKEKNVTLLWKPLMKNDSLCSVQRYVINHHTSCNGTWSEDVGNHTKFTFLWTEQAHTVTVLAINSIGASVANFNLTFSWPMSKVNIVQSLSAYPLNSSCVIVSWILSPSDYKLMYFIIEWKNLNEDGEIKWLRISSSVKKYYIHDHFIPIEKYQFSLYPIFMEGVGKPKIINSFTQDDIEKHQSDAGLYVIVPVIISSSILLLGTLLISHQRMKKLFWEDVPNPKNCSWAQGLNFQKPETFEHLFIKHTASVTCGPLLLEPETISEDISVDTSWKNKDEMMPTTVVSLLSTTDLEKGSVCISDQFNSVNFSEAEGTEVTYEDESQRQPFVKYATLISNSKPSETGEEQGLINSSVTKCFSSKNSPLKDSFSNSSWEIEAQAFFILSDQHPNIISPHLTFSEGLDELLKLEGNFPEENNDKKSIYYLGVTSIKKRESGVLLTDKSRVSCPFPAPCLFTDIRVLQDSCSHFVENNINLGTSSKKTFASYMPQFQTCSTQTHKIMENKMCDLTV

Rat LEPR-ECD-His = biological target: T2, Rat LEPR-ECD-His (rat, UniProt Q62959 22-839); test: SPR (Biacore T200), antibody captured on Protein A/G chip, n = 1
T2 sequence: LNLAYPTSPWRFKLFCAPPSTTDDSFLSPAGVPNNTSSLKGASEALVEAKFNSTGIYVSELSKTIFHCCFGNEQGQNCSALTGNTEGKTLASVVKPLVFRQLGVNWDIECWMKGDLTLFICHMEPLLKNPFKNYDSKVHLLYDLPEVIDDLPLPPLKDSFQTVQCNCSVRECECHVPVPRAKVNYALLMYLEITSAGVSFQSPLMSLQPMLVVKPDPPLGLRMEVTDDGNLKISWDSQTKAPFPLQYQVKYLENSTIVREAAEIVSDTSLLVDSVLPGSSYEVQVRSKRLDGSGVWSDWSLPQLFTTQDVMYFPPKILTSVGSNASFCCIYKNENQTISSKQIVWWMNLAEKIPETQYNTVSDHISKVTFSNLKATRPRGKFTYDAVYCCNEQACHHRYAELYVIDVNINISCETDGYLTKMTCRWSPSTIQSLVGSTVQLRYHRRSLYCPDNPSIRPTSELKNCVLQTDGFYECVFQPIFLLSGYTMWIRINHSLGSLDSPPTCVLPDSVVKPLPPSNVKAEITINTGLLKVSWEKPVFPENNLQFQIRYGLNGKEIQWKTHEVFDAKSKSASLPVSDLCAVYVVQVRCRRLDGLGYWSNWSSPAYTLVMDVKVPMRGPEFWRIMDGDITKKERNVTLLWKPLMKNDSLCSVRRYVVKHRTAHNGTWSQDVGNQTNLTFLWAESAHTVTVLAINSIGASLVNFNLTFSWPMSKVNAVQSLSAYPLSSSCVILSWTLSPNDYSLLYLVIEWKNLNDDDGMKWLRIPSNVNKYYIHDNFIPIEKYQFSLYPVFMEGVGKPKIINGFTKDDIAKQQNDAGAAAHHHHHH

[2] = biological target: T1, human LEPR, full length, on …; test: cell-based or functional assay
[3] = biological target: T3, cynomolgus monkey LEPR, full length, on HEK293-STAT3Luc-cmLepR2 cells (Macaca fascicularis); test: flow cytometry on live HEK293-STAT3Luc-cmLepR2 cells, AF647 anti-human IgG; average of 4 runs
T3 construct: whole, on cells; also called cyno-LEPR; Macaca fascicularis LEPR

[4] = biological target: T4, Recombinant LEPR extracellular domain fused to hIgG1-Fc (human LEPR ECD-TEV-Fc) (human); test: ELISA, plate coated with human LEPR ECD (SEQ ID NO:30) at 2 ug/mL, antibody titrated 1:3 from 50 ug/mL, goat anti-human kappa AP detection, OD560
T4 construct: The entry holds ECD, TEV site, human IgG1 Fc and a His tag in one chain; also called LEPR-Fc; hLEPR-TEV-hIgG1Fc

[5] = biological target: T1, human LEPR, full length, on …; test: cell-based or functional assay; remark: listed apart in the source

Bottom (gMFI) [1]: 131 gMFI
Top (gMFI) [1]: 2460 gMFI
Maximum RLU, pERK1/2 AlphaLISA (baseline 29762.5) [2]: 86000 RLU
Bottom (gMFI) [3]: 254 gMFI
Top (gMFI) [3]: 12100 gMFI
EC50 (read off the curve) [4]: ~0.06 µg/mL
EC50 (nM), pSTAT3 AlphaLISA, after pre-exposure to 30 nM Antibody A and wash-out [5]: 0.36 nM
EC50 (nM), pSTAT3 AlphaLISA, vehicle-exposed cells [5]: 0.331 nM
Top (%), pSTAT3 AlphaLISA against 30 nM leptin, vehicle-exposed cells [5]: 68.9%
B1: Antibody A (antibody, human IgG1, kappa, L234A L235A)
heavy: EVQLLESGGGLVQPGGSLRLSCAASGFTFSSFAMSWVRQAPGKGLEWVSAISGSGGSTYSADSVRGRFTISRDNSKNTLYLQMNSLRAEDTAVYYCAKDQGDWDFLFDYWGQGTLVTVSSASTKGPSVFPLAPSSKSTSGGTAALGCLVKDYFPEPVTVSWNSGALTSGVHTFPAVLQSSGLYSLSSVVTVPSSSLGTQTYICNVNHKPSNTKVDKRVEPKSCDKTHTCPPCPAPEAAGGPSVFLFPPKPKDTLYITREPEVTCVVVSVSHEDPEVKFNWYVDGVEVHNAKTKPREEQYNSTYRVVSVLTVLHQDWLNGKEYKCKVSNKALPAPIEKTISKAKGQPREPQVYTLPPSREEMTKNQVSLTCLVKGFYPSDIAVEWESNGQPENNYKTTPPVLDSDGSFFLYSKLTVDKSRWQQGNVFSCSVMHEALHNHYTQKSLSLSPGK
light: DIQMTQSPSFLSASVGDRVTITCRASQGISSSLAWYQQKPGKAPKLLIYTASTLQSGVPSRFSGSGSGTEFTLTISSLQPEDFATYYCQQLIYYPFTFGQGTKVEIKRTVAAPSVFIFPPSDEQLKSGTASVVCLLNNFYPREAKVQWKVDNALQSGNSQESVTEQDSKDSTYSLSSTLTLSKADYEKHKVYACEVTHQGLSSPVTKSFNRGEC
notes: IgG1 mAb
binding result (Rat LEPR-ECD-His): no binding (tested: LEPR-ECD tested up to 1000 nM)

Bottom (gMFI) [1]: 123 gMFI
Top (gMFI) [1]: 2940 gMFI
Maximum RLU, pERK1/2 AlphaLISA (baseline 29762.5) [2]: 83400 RLU
Bottom (gMFI) [3]: 243 gMFI
Top (gMFI) [3]: 12100 gMFI
EC50 (read off the curve) [4]: ~0.08 µg/mL
EC50 (nM), pSTAT3 AlphaLISA, after pre-exposure to 30 nM Antibody B and wash-out [5]: 1.06 nM
EC50 (nM), pSTAT3 AlphaLISA, vehicle-exposed cells [5]: 0.986 nM
Top (%), pSTAT3 AlphaLISA against 30 nM leptin, vehicle-exposed cells [5]: 70.5%
B2: Antibody B (antibody, human IgG1, kappa, L234A L235A, V domains shown)
VH: EVQLLESGGGLVQPGGSLRLSCAASGFTFSSFAMSWVRQAPGKGLEWVSAISGSGGSTYSADSVRGRFTISRDNSKNTLYLQMNSLRAEDTAVYYCAKDQGDWDFLFDYWGQGTLVTVSS
VL: DIQMTQSPSFLSASVGDRVTITCRVSQGISSSLAWYQQKPGKAPKLLIYTASTLQSGVPSRFSGSGSGTEFTLTISSLQPEDFATYYCQQLNYYPFTFGQGTKVEIKR
binding result (Rat LEPR-ECD-His): no binding (tested: LEPR-ECD tested up to 1000 nM)

Bottom (gMFI) [1]: 144 gMFI
Top (gMFI) [1]: 1850 gMFI
Maximum RLU, pERK1/2 AlphaLISA (baseline 29762.5) [2]: 87000 RLU
Bottom (gMFI) [3]: 214 gMFI
Top (gMFI) [3]: 10800 gMFI
EC50 (read off the curve) [4]: ~0.07 µg/mL
EC50 (nM), pSTAT3 AlphaLISA, after pre-exposure to 30 nM Antibody C and wash-out [5]: 1.14 nM
EC50 (nM), pSTAT3 AlphaLISA, vehicle-exposed cells [5]: 1.04 nM
Top (%), pSTAT3 AlphaLISA against 30 nM leptin, vehicle-exposed cells [5]: 71.7%
B3: Antibody C (antibody, human IgG1, kappa, L234A L235A, V domains shown)
VH: B2 VH
VL: B2 VL with V25A, T97S
binding result (Rat LEPR-ECD-His): no binding (tested: LEPR-ECD tested up to 1000 nM)
